Test results as given in patent US20170319722A1.
Square brackets hold non-standard residues; d marks the D form. Primed or numbered codes have the meaning given here. Ends that are not written are not given here. * marks the point of attachment. PEG3′ = PEG linker of three ethylene glycol repeat units; Biotin = O=C1N[C@H]2[C@H](CS[C@H]2CCCCC(=O)*)N1; Lys(N3) = [N-]=[N+]=NCCCC[C@H](N)C(=O)O; Pra = C#CC[C@H](N)C(=O)O

B1: Biotin-PEG3-Cy(HGRGH)-PEG6-Cy(wplrf) (peptide)
peptide 1: {Biotin-PEG3′}-[Pra]HGRGH
peptide 2: [Pra][dW][dP][dL][dR][dF]
modifications: not fully specified (some residues, C-terminus); printed as Biotin-PEG3-Cy(HGRGH)-PEG6-Cy(wplrf); numbers in words are those of the source; also: joined C-terminally through a PEG6 linker to the second macrocycle, triazole to a chain's N/C-terminus
B2: biotin-PEG3-Cy(rwfnv) (peptide)
peptide: RWFNV
modifications: all residues D-amino acids (lower case); N-terminal biotin-PEG3; triazole-cyclized (Cy) between flanking Pra and Az4
B3: Biotin-PEG3-Cy(HGRGH)-PEG4-Cy(wplrf) (peptide)
peptide 1: {Biotin-PEG3′}-[Pra]HGRGH
peptide 2: [Pra][dW][dP][dL][dR][dF]
modifications: not fully specified (some residues, C-terminus); printed as Biotin-PEG3-Cy(HGRGH)-PEG4-Cy(wplrf); numbers in words are those of the source; also: joined C-terminally through a PEG4 linker to the second macrocycle, triazole to a chain's N/C-terminus
B4: Biotin-PEG3-Cy(HGRGH)-PEG5-Cy(wplrf) (peptide)
peptide 1: {Biotin-PEG3′}-[Pra]HGRGH
peptide 2: [Pra][dW][dP][dL][dR][dF]
modifications: not fully specified (some residues, C-terminus); printed as Biotin-PEG3-Cy(HGRGH)-PEG5-Cy(wplrf); numbers in words are those of the source; also: joined C-terminally through a PEG5 linker to the second macrocycle, triazole to a chain's N/C-terminus
B5: biotin-PEG3-Cy(ffrly) (peptide)
peptide: FFRLY
modifications: all residues D-amino acids (lower case); N-terminal biotin-PEG3; triazole-cyclized (Cy) between flanking Pra and Az4
B6: Cy(Ghtwp)-Lys(Biotin)-PEG1-Cy(hGrGh) (peptide)
peptide 1: [Pra]G[dH][dT][dW][dP]
peptide 2: [Pra][dH]G[dR]G[dH][Lys(N3)]
modifications: not fully specified (C-terminus); printed as Cy(Ghtwp)-Lys(Biotin)-PEG1-Cy(hGrGh); also: triazole to a chain's N/C-terminus, triazole to a chain's N/C-terminus
B7: biotin-PEG3-Cy(wplrf) (peptide)
peptide: WPLRF
modifications: all residues D-amino acids (lower case); N-terminal biotin-PEG3; triazole-cyclized (Cy) between flanking Pra and Az4
B8: Biotin-PEG3-Cy(HGRGH)-PEG3-Cy(wplrf) (peptide)
peptide 1: {Biotin-PEG3′}-[Pra]HGRGH
peptide 2: [Pra][dW][dP][dL][dR][dF]
modifications: not fully specified (some residues, C-terminus); numbers in words are those of the source; also: joined C-terminally through a PEG3 linker to the second macrocycle, triazole to a chain's N/C-terminus
B9: biotin-PEG3-Cy(wsvnv) (peptide)
peptide: WSVNV
modifications: all residues D-amino acids (lower case); N-terminal biotin-PEG3; triazole-cyclized (Cy) between flanking Pra and Az4
B10: Biotin-PEG3-Cy(HGRGH)-PEG7-Cy(wplrf) (peptide)
peptide 1: {Biotin-PEG3′}-[Pra]HGRGH
peptide 2: [Pra][dW][dP][dL][dR][dF]
modifications: not fully specified (some residues, C-terminus); printed as Biotin-PEG3-Cy(HGRGH)-PEG7-Cy(wplrf); numbers in words are those of the source; also: joined C-terminally through a PEG7 linker to the second macrocycle, triazole to a chain's N/C-terminus

How the values were obtained:
[1] = molecular target: His-tagged CD8α human recombinant protein (MBS968456, MyBioSource) (human) (UniProt P01732); experiment: sandwich ELISA; biotinylated biligand on NeutrAvidin plate, His-tagged CD8α titrated
Sequence of His-tagged CD8α human recombinant protein (MBS968456, MyBioSource) (human) (P01732 22-182 limits assumed): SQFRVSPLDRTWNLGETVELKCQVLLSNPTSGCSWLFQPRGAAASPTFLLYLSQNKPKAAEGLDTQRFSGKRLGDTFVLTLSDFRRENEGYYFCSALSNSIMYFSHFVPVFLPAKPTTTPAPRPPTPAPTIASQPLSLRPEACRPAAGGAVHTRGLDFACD

[2] = molecular target: His-tagged CD8α human recombinant protein (TP760215, Origene) (human) (UniProt P01732); experiment: sandwich ELISA; biotinylated ligand on NeutrAvidin plate, His-tagged CD8α titrated, anti-His-AP detection
Sequence of His-tagged CD8α human recombinant protein (TP760215, Origene) (human) (P01732 22-182 limits assumed): as above

[3] = molecular target: His-tagged CD8α human recombinant protein (TP760215, Origene) (human) (UniProt P01732); experiment: sandwich ELISA; range told of the group, upper end tied to Cy(rwfnv) by the legend of FIG. 5
[4] = molecular target: His-tagged CD8α human recombinant protein (MBS968456, MyBioSource) (human) (UniProt P01732); experiment: sandwich ELISA; biligand against its single macrocycles Cy(HGRGH) and Cy(wplrf)
[5] = molecular target: His-tagged CD8α human recombinant protein (MBS968456, MyBioSource) (human) (UniProt P01732); experiment: sandwich ELISA; biotinylated biligand on NeutrAvidin plate, His-tagged CD8α titrated, anti-His-AP detection
[6] = molecular target: His-tagged CD8α human recombinant protein (MBS968456, MyBioSource) (human) (UniProt P01732); experiment: ELISA with His-tagged CD8α human recombinant protein

| Binder | fold below the affinity of the optimal linker (PEG5) biligand [1] [fold] | EC50 [2] [nM] | other results |
| --- | --- | --- | --- |
| B1 | 10 |  |  |
| B2 |  | 62 | EC50 [3]: 62 nM |
| B3 | 10 |  |  |
| B4 |  |  | fold improvement in affinity relative to the individual PCC macrocyclic ligands [4]: > 30 fold; EC50 [5]: 0.2 nM |
| B5 |  | 56 |  |
| B6 |  |  | EC50 [6]: 0.058 nM |
| B7 |  | 16 |  |
| B8 | 10 |  |  |
| B9 |  | 9 |  |
| B10 | 10 |  |  |
